From US20140024050A1 (published 2014)
Bridges are numbered along the chain shown (N, C = ends). Where no end group is shown, it is not given here.

T1: Alexa-488 labeled PIVKAII Gla domain peptide (13-27), cyclized (disulfide 5-10 (inferred); also: Alexa Fluor 488 attached via TFP active ester, site not given here)
T1 construct: also called Alexa488-PIVKAII (13-27); Alexa488-PIVKAII peptide (13-27 cyc)
T1 peptide: LERECVEETCSYEEA

B1: Gla domain Factor VII peptide (sequence 13) (peptide)
peptide: LERECKEEQCSFEEA
notes: also called PIVKAII Gla domain (13-27) analog; PIVKAII peptide analog
B2: Gla domain Factor X peptide (sequence 12) (peptide)
peptide: LERECMEETCSYEEA
notes: as for B1
B3: anti-PIVKA-II monoclonal antibody 3C10 (hybridoma-derived) (antibody, V domains shown)
VH: EVQLVESGGDLVKPGGSLKLSCAASGFTFSSYGMSWVRQTPDKRLEWVATISRGGSSTYYPDSVKGRFTISRDNAKNNLYLQMSSLKSEDTAMYYCASLNYGNFFDYWGQGTTLTVSS
VL: DVVMTQTPLSLPVSLGDQASISCRSSQSLVHSNGNTYLHWYLQKPGQSPKLLIYKVSNRFSGVPDRFSGSGSGTDFTLKISRVEAEDLGVYFCSQNRHVPPTFGGGTKLEIKR
notes: Mouse monoclonal from a GANP transgenic C57BL/6 mouse immunized with PIVKA-II 13-27 peptide-KLH; For the Kd by quenching the antibody carried Black Hole Quencher (I.R. 2.3); also called mAb 3C10; clone 3C10
B4: Gla domain Protein S peptide (sequence 15) (peptide)
peptide: LERECIEELCNKEEA
notes: as for B1
B5: Gla domain Protein Z peptide (sequence 16) (peptide)
peptide: LEKECYEEICVYEEA
notes: as for B1
B6: Gla domain Protein C peptide (sequence 14) (peptide)
peptide: LERECIEEICDFEEA
notes: as for B1
B7: Gla domain Factor IX peptide (sequence 11) (peptide)
peptide: LERECMEEKCSFEEA
notes: as for B1

Legend:
[1] = biological target: B3; experiment: FCS displacement: 2 nM Alexa488-PIVKAII (13-27) premixed with 10 nM mAb 3C10, analog added, overnight
Method: (§1) Then, various PIVKAII Gla domain (13-27) analogs were added to the sample. PIVKAII (13-27) was added as a positive control, and the original sample was used as a negative control. FCS measurements were performed on each sample after overnight incubation.

[2] = biological target: B3; experiment: FCS displacement of Alexa488-PIVKAII (13-27) from mAb 3C10, positive control
Method: as §1

[3] = biological target: T2, PIVKA-II antigen (heat-decarboxylated prothrombin) (UniProt P00734 44-622, Gla residues of the Gla domain decarboxylated to glutamic acid by heating dried prothrombin powder at 110 C for 8 hours); experiment: FCS displacement of Alexa488-PIVKAII (13-27) from mAb 3C10 by PIVKA-II preparations
T2 construct: Residues 13-27 are counted on the Gla domain
Method: Various amounts of PIVKAII from different preparations were added to the antigen-antibody complex. After overnight incubation, FCS measurements were performed on each sample.

[4] = biological target: T1, Alexa-488 labeled PIVKAII Gla domain …; experiment: fluorescence quenching (FRET) titration in solution, BHQ-labeled mAb, 0.05 nM Alexa488 peptide
Method: The binding curve was fit with a simple fitting model.
All binding measurements were performed in 10 mM HEPES buffer, pH 7.4, containing 0.15M NaCl, 3 mM EDTA, and 0.005% surfactant P20.

B1
binding result [1]: no binding

LERECVEETCSYEEA (also called PIVKA-II peptide (13-27)) [PIVKAII (13-27) peptide, unlabeled]
binding result [2]: binds

B2
binding result [1]: no binding

B3
binding result [3]: binds | Kd [4]: 0.15 nM

B4
binding result [1]: no binding

B5
binding result [1]: no binding

B6
binding result [1]: no binding

B7
binding result [1]: no binding
